This note sets out measurements from article PMC4802042 (2016).

Sequences and labels used below:
B1: MKP5 catalytic domain (MKP5-CD, residues 320-467) [human] / GST-JNK1 (wild type) [human] (parent complex)
chain 1: AELTPILPFLFLGNEQDAQDLDTMQRLNIGYVINVTTHLPLYHYEKGLFNYKRLPATDSNKQNLRQYFEEAFEFIEEAHQCGKGLLIHCQAGVSRSATIVIAYLMKHTRMTMTDAYKFVKGKRPIISPNLNFMGQLLEFEEDLNNGVT
chain 2: MSRSKRDNNFYSVEIGDSTFTVLKRYQNLKPIGSGAQGIVCAAYDAILERNVAIKKLSRPFQNQTHAKRAYRELVLMKCVNHKNIIGLLNVFTPQKSLEEFQDVYIVMELMDANLCQVIQMELDHERMSYLLYQMLCGIKHLHSAGIIHRDLKPSNIVVKSDCTLKILDFGLARTAGTSFMMTPYVVTRYYRAPEVILGMGYKENVDIWSVGCIMGEMIKGGVLFPGTDHIDQWNKVIEQLGTPCPEFMKKLQPTVRTYVENRPKYAGYSFEKLFPDVLFPADSEHNKLKASQARDLLSKMLVIDASKRISVDEALQHPYINVWYDPSEAEAPPPKIPDKQLDEREHTIEEWKELIYKEVMDLLE
B2: MKP7 catalytic domain (MKP7-CD, residues 156-301) [human] / GST-JNK1 (wild type) [human] (parent complex)
chain 1: NIGPTRILPNLYLGCQRDVLNKELMQQNGIGYVLNASNTCPKPDFIPESHFLRVPVNDSFCEKILPWLDKSVDFIEKAKASNGCVLVHCLAGISRSATIAIAYIMKRMDMSLDEAYRFVKEKRPTISPNFNFLGQLLDYEKKIKNQ
chain 2: B1 chain 2

The first assay covers variants of B1. As to the kind of experiment: GST pull-down; parent: 100; read off a plot.
Regarding chain 2 H230D, the percent of parent is ~98 % of wild-type JNK1.
Same read-out and setting: next, chain 2 T255A: ~43 % of wild-type JNK1; chain 2 I197D: ~49 % of wild-type JNK1.
The same measure, in the same setting: the same measure for chain 2 I231D: ~28 % of wild-type JNK1; for chain 2 R263A: ~98 % of wild-type JNK1.
Consider chain 2 T228A, for which the percent of parent is ~88 % of wild-type JNK1.
Consider chain 2 Q253A, for which the percent of parent is ~67 % of wild-type JNK1.

The next assay covers variants of B2. As to the kind of experiment: GST pull-down; parent: 100; read off a plot.
Take chain 2 R263A: the percent of parent was ~73 % of wild-type JNK1.
Same read-out and setting: next, chain 2 I197D: ~88 % of wild-type JNK1.
For chain 2 Q253A, the percent of parent was ~92 % of wild-type JNK1.
Turning to chain 2 D229A, the percent of parent is ~5 % of wild-type JNK1.
With chain 2 V260D, the percent of parent is ~8 % of wild-type JNK1.
Still for that read-out and setting: the same measure for chain 2 T228A: ~72 % of wild-type JNK1; for chain 2 H230D: ~96 % of wild-type JNK1.
Turning to chain 2 T255A, the percent of parent was ~30 % of wild-type JNK1.
For chain 2 I231D, the percent of parent is ~37 % of wild-type JNK1.
